Assay results: EP1417974A1

B1: BIWA 4 (antibody, human IgG1, kappa, V domains shown)
VH: EVQLVESGGGLVKPGGSLRLSCAASGFTFSSYDMSWVRQAPGKGLEWVSTISSGGSYTYYLDSIKGRFTISRDNAKNSLYLQMNSLRAEDTAVYYCARQGLDYWGRGTLVTVSS
VL: EIVLTQSPATLSLSPGERATLSCSASSSINYIYWYQQKPGQAPRLLIYLTSNLASGVPARFSGSGSGTDFTLTISSLEPEDFAVYYCLQWSSNPLTFGGGTKVEIKR

Target: CD44v6 on antigen-positive FaDu cells (human) (UniProt P16070)
Assay: flow cytometry (FACS) on antigen-positive FaDu cells, FITC-labeled anti-human IgG detection, on ice

Sequence of UniProt P16070 (P16070 21-742): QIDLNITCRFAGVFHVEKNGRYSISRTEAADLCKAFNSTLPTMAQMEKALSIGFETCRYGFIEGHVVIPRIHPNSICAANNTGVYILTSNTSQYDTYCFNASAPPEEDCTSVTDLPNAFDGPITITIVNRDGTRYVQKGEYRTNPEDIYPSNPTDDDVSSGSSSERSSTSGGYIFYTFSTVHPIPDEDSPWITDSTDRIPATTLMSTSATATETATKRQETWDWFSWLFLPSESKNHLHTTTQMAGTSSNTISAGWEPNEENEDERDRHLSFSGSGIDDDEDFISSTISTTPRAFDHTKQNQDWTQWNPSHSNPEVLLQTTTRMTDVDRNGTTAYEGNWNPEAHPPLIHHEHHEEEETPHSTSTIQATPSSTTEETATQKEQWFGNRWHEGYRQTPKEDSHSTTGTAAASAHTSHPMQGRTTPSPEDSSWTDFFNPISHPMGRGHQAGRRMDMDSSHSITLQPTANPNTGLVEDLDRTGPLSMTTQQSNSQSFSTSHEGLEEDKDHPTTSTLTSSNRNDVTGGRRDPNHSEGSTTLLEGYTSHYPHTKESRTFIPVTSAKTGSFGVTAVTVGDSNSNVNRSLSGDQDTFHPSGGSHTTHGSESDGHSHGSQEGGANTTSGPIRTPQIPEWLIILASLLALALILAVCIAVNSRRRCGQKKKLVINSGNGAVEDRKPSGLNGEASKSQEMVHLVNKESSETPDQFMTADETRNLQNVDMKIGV

Kd [nM]	Molecule
1.8	BIWI 1 (from UniProt P0DOX5 2-449)
1	B1
